Data as given in patent publication US20220380459A1 (DRAGONFLY THERAPEUTICS, published 2022).
Like-named read-outs stand apart in the source and are kept apart here.

Tests used:
[1] = target: T1, human CD33 expressed on cells (human, UniProt P20138 18-364); test: flow cytometry on Molm-13 cells, fluorophore-conjugated anti-human IgG secondary antibody, MFI as fold over background (FOB)
T1 construct: endogenous CD33 of human AML cell lines and blood monocytes; also called cell-expressed CD33 (Molm-13, Mv4-11, monocytes)
Protocol: Binding of the TriNKET was detected using a fluorophore conjugated anti-human IgG secondary antibody. Cells were analyzed by flow cytometry, binding MFI to cell expressed CD33 was normalized to secondary antibody controls to obtain fold over background values.

[2] = target: T2, cyno CD33 extracellular domain (Cynomolgus/Rhesus (cyno)); test: SPR, Fab captured, 37C;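 also: surface plasmon resonance with Fabs captured on anti-Fab surface, soluble monomeric CD33 as analyte at several concentrations, double-referenced 1:1 model fit, KD as koff/kon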
T2 construct: soluble monomeric ECD; also called cyno CD33 ECD

[3] = target: T3, human CD33 extracellular domain (human, UniProt P20138 18-259); test: SPR, Fab captured, 37C;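 as to result: surface plasmon resonance with Fabs captured on anti-Fab surface, soluble monomeric CD33 as analyte at several concentrations, double-referenced 1:1 model fit, KD as koff/kon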
T3 construct: soluble monomeric ECD; also called human CD33 ECD; hCD33

C domain of human CD33 = target: T4, C domain of human CD33 (human, UniProt P20138 140-259, limits assumed); test: SPR, Fab captured, 37C
T4 construct: recombinant C domain
Protocol: (§1) Kinetics and affinity of a series of Fab fragments of anti-CD33 antibodies with different CD33 variants (human CD33 ECD, cyno CD33 ECD, V-domain of human CD33, C-domain or human CD33 and selected CD33 SNPs) were assessed by surface plasmon resonance using Biacore 8K instrument (GE Healthcare). Anti-Fab antibody was immobilized on a CMS chip using standard amine coupling chemistry. CD33 FABs were captured on the anti-Fab chip at a density of ˜100 RU. Solutions containing different concentrations of soluble monomeric CD33 or its domains were injected over the captured FABs and control surfaces at 30 μl/min at 37° C. Surfaces were regenerated between cycles by quick injection of 10 mM glycine, pH 1.8. To obtain kinetic rate constants double-referenced data were fit to a 1:1 interaction model using Biacore 8K Evaluation software (GE Healthcare). The equilibrium binding constant KD was determined by the ratio of binding rate constants kd/kₐ.
The binding interface between the Fab fragment of each CD33 antibody to CD33 was mapped.

[4] = target: T3, human CD33 extracellular domain; test: SPR, Fab captured, 37C; remark: listed apart in the source;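 as to result: surface plasmon resonance with Fabs captured on anti-Fab surface, soluble monomeric CD33 as analyte at several concentrations, double-referenced 1:1 model fit, KD as koff/kon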
Protocol: as §1
(§2) Affinity of 29 Fab fragments binding to human and cyno CD33 ECD were assayed by Biacore analysis.

V domain of human CD33 [5] = target: T5, V domain of human CD33 (human, UniProt P20138 18-139, limits assumed); test: SPR, Fab captured, 37C
T5 construct: recombinant, fully glycosylated V domain; also called Human CD33 V domain
Protocol: as §1
(§3) The ability of anti-CD33 antibodies to recognize glycosylated CD33 was assayed. […] De-glycosylation status was confirmed by a shift on SDS-PAGE and MS.

[6] = target: T6, deglycosylated V domain of human CD33 (human, UniProt P20138 18-139, limits assumed, N-glycans removed by PNGase); test: SPR, Fab captured, 37C
T6 construct: V domain deglycosylated by PNGase before testing; also called deglycosylated V CD33
Protocol: as §1, §3

V domain of human CD33 [7] = target: T5, V domain of human CD33; test: SPR, Fab captured, 37C; remark: listed apart in the source
[8] = target: T3, human CD33 extracellular domain; test: SPR, Fab captured, 37C; remark: listed apart in the source;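 as to result: surface plasmon resonance with Fabs captured on anti-Fab surface, soluble monomeric CD33 as analyte at several concentrations, double-referenced 1:1 model fit, KD as koff/kon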
[9] = target: T3, human CD33 extracellular domain; test: SPR, Fab captured, 37C; remark: listed apart in the source
Protocol: as §1, §2

Binder | Kd [3] [nM] | koff [3] [s⁻¹] | kon [3] [M⁻¹ s⁻¹] | binding result (C domain of human CD33) | Kd [4] [nM] | koff [4] [s⁻¹] | kon [4] [M⁻¹ s⁻¹] | Kd (V domain of human CD33 [5]) [nM] | koff (V domain of human CD33 [5]) [s⁻¹] | kon (V domain of human CD33 [5]) [M⁻¹ s⁻¹] | Kd [6] [nM] | koff [6] [s⁻¹] | kon [6] [M⁻¹ s⁻¹] | Kd (V domain of human CD33 [7]) [nM] | koff (V domain of human CD33 [7]) [s⁻¹] | kon (V domain of human CD33 [7]) [M⁻¹ s⁻¹] | Kd [8] [nM] | koff [8] [s⁻¹] | kon [8] [M⁻¹ s⁻¹] | Kd [9] [nM] | other results
A40.I07 (bispecific antibody) NKG2D-binding VH: QVQLQQWGAGLLKPSETLSLTCAVYGGSFSGYYWSWIRQPPGKGLEWIGEIDHSGSTNYNPSLKSRVTISVDTSKNQFSLKLSSVTAADTAVYYCARARGPWSFDPWGQGTLVTVSS NKG2D-binding VL: DIQMTQSPSTLSASVGDRVTITCRASQSIGSWLAWYQQKPGKAPKLLIYKASSLESGVPSRFSGSGSGTEFTLTISSLQPDDFATYYCQQYHSFYTFGGGTKVEIK CD33-binding VH: EVQLVESGGGLVQPGGSLRLSCAASGFTFGSYWMSWVRQAPGKGLEWVATIKQDGSEKSYVDSVKGRFTISRDNAKNSLYLQMNSLRAEDTAVYYCARPLNAGELDVWGQGTMVTVSS CD33-binding VL: DIQMTQSPSTLSASVGDRVTITCRASQSISSWLAWYQQKPGKAPKLLIYEASSLESGVPSRFSGSGSGTEFTLTISSLQPDDFATYYCQQSQSYPPITFGGGTKVEIK |  |  |  |  |  |  |  |  |  |  |  |  |  |  |  |  |  |  |  |  | binding result [1]: binds
F47.I07 (bispecific antibody) NKG2D-binding VH: QVQLQQWGAGLLKPSETLSLTCAVYGGSFSGYYWSWIRQPPGKGLEWIGEIDHSGSTNYNPSLKSRVTISVDTSKNQFSLKLSSVTAADTAVYYCARARGPWSFDPWGQGTLVTVSS NKG2D-binding VL: DIQMTQSPSTLSASVGDRVTITCRASQSISSWLAWYQQKPGKAPKLLIYKASSLESGVPSRFSGSGSGTEFTLTISSLQPDDFATYYCQQYDTFITFGGGTKVEIK CD33-binding VH: EVQLVESGGGLVQPGGSLRLSCAASGFTFGSYWMSWVRQAPGKGLEWVATIKQDGSEKSYVDSVKGRFTISRDNAKNSLYLQMNSLRAEDTAVYYCARPLNAGELDVWGQGTMVTVSS CD33-binding VL: DIQMTQSPSTLSASVGDRVTITCRASQSISSWLAWYQQKPGKAPKLLIYEASSLESGVPSRFSGSGSGTEFTLTISSLQPDDFATYYCQQSQSYPPITFGGGTKVEIK |  |  |  |  |  |  |  |  |  |  |  |  |  |  |  |  |  |  |  |  | binding result [1]: binds
ADI-11825 Fab (Fab, V domains shown, Fab fragment; also called Ab25) VH: EVQLVESGGGLVQPGGSLRLSCAASGFTFGGYWMSWVRQAPGKGLEWVANINQDGSEEYYVDSVKGRFTISRDNAKNSLYLQMNSLRAEDTAVYYCAREANYYGNVGDDYWGQGTLVTVSS VL: DIQMTQSPSSLSASVGDRVTITCRASQSIYNYLNWYQQKPGKAPKLLIYAASNLHSGVPSRFSGSGSGTDFTLTISSLQPEDFATYYCQQAFHVPITFGGGTKVEIK | 1.78 | 0.0038 | 2.13e+06 | no binding | 1.78 | 0.0038 | 2.13e+06 | 3.95 | 0.0195 | 4.93e+06 | 3.11 | 0.018 | 5.78e+06 | 3.95 | 0.0195 | 4.93e+06 | 1.78 | 0.0038 | 2.13e+06 | 1.78 | binding result [2]: no binding (tested: 100 nM); koff [9]: 0.0038 s⁻¹
ADI-10161 Fab (Fab, V domains shown, Fab fragment; also called Ab16) VH: EVQLVESGGGLVQPGGSLRLSCAASGFTFSSYWMSWVRQAPGKGLEWVANINQDGSEKYYVDSVKGRFTISRDNAKNSLYLQMNSLRAEDTAVYYCAREGGDSWYHAFDIWGQGTMVTVSS VL: DIQMTQSPSSVSASVGDRVTITCRASQGISSWLAWYQQKPGKAPKLLIYAASNLQSGVPSRFSGSGSGTDFTLTISSLQPEDFATYYCQQKLSLPLTFGGGTKVEIK | 20.6 | 0.0118 | 574000 | no binding | 20.6 | 0.0118 | 574000 | 95.8 | 0.124 | 1.29e+06 | 85.6 | 0.196 | 2.29e+06 | 95.8 | 0.124 | 1.29e+06 | 20.6 | 0.0118 | 574000 | 20.6 | binding result [2]: no binding (tested: 100 nM); koff [9]: 0.0118 s⁻¹
ADI-10164 Fab (Fab, V domains shown, Fab fragment; also called Ab18) VH: QVQLQESGPGLVKPSETLSLTCAVSGYSISSGYYWGWIRQPPGKGLEWIGSIYHSGSTNYNPSLKSRVTISVDTSKNQFSLKLSSVTAADTAVYYCARLPPWFGFSYFDLWGRGTLVTVSS VL: EIVLTQSPATLSLSPGERATLSCRASQSVSSYLAWYQQKPGQAPRLLIYDASNRATGIPARFSGSGSGTDFTLTISSLEPEDFAVYYCQQVDNYPPTFGGGTKVEIK | 31.5 | 0.0101 | 319000 | no binding | 31.5 | 0.0101 | 319000 | 286 | 0.37 | 1.29e+06 | 143 | 0.116 | 811000 | 286 | 0.37 | 1.29e+06 | 31.5 | 0.0101 | 319000 | 31.5 | binding result [2]: no binding (tested: 100 nM); koff [9]: 0.0101 s⁻¹
ADI-11828 Fab (Fab, V domains shown, Fab fragment; also called Ab27) VH: EVQLVESGGGLVQPGGSLRLSCAASGFTFSSYWMSWVRQAPGKGLEWVANINQDGSEVYYVDSVKGRFTISRDNAKNSLYLQMNSLRAEDTAVYYCARDVGPGIAYQGHFDYWGQGTLVTVSS VL: DIQMTQSPSSLSASVGDRVTITCRASQSIYYYLNWYQQKPGKAPKLLIYAASSRQSGVPSRFSGSGSGTDFTLTISSLQPEDFATYYCQQVYDTPLTFGGGTKVEIK | 2.67 | 0.00351 | 1.32e+06 | no binding | 2.67 | 0.00351 | 1.32e+06 | 6.3 | 0.0213 | 3.37e+06 | 4.87 | 0.0189 | 3.59e+06 | 6.3 | 0.0213 | 3.37e+06 | 2.67 | 0.00351 | 1.32e+06 | 2.67 | Kd [2]: 53.5 nM; koff [2]: 0.0548 s⁻¹; kon [2]: 1.03e+06 M⁻¹ s⁻¹; koff [9]: 0.00351 s⁻¹
ADI-11839 Fab (Fab, V domains shown, Fab fragment; also called Ab28) VH: QVQLVQSGAEVKKPGASVKVSCKASGYTFSNYYMHWVRQAPGQGLEWMGWINPFSGGTRYAQKFQGRVTMTRDTSTSTVYMELSSLRSEDTAVYYCARDVGSSAYYYMDVWGKGTTVTVSS VL: DIQMTQSPSSVSASVGDRVTITCEASKGISSWLAWYQQKPGKAPKLLIYAASDLQSGVPSRFSGSGSGTDFTLTISSLQPEDFATYYCQQAFLFPPTFGGGTKVEIK | 18.6 | 0.0162 | 874000 | no binding | 18.6 | 0.0162 | 874000 | 44.6 | 0.41 | 9.19e+06 | 70.3 | 0.116 | 1.65e+06 | 44.6 | 0.41 | 9.19e+06 | 18.6 | 0.0162 | 874000 | 18.6 | binding result [2]: no binding (tested: 100 nM); koff [9]: 0.0162 s⁻¹
